These results are taken from patent US20210181204A1 (SYNGENTA PARTICIPATIONS, published 2021).

Residue numbers refer to the chain shown, from its start. Names may count otherwise.

For test [1], the target named is Cry1Aa insecticidal protein (Bacillus thuringiensis subsp. aizawai, UniProt P0A367 12-1176). Briefly: direct ELISA, coated protein, SA-AP, 405 nm. A general note: An ELISA detects its analyte on a solid surface through an enzyme-linked reagent.
Test [2] concerns the target T1, Cry1Ab insecticidal protein (Bacillus thuringiensis, UniProt P0A370 1-615). Briefly: direct ELISA, coated protein, SA-AP, 405 nm.
The target in test [3] is Cry1Ab.1Ca insecticidal protein. Description: direct ELISA, coated protein, SA-AP, 405 nm.
Test [4] concerns the target eCry3.1Ab hybrid insecticidal protein. Description: direct ELISA, coated protein, SA-AP, 405 nm.
Test [5] deals with T2, mCry3A insecticidal protein (Bacillus thuringiensis subsp. …, UniProt P0A379 48-644, limits assumed).
T2 construct: also called modified Cry3A
T2 sequence: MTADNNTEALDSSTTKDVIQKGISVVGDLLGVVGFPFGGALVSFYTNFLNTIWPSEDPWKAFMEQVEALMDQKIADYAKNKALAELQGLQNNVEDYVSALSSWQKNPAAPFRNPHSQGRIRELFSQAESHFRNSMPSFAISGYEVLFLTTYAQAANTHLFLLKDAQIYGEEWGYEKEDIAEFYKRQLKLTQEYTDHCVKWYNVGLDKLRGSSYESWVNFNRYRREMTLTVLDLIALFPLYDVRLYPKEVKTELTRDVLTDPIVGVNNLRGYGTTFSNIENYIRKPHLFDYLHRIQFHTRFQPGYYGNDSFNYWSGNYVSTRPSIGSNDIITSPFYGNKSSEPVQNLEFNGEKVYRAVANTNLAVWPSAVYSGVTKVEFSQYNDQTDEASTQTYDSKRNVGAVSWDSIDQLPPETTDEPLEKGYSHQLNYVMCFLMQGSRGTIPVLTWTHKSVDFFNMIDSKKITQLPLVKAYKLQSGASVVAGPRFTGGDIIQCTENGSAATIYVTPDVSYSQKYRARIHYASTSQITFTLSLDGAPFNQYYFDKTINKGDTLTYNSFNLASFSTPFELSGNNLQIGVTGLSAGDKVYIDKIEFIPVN
Briefly: direct ELISA, coated protein, SA-AP, 405 nm.

Test [6] has as its target Cry1Ai insecticidal protein. Briefly: direct ELISA, coated protein, SA-AP, 405 nm.
In test [7] the target is T2, mCry3A insecticidal protein. Description: direct ELISA: mCry3A coated at 1 ug/ml, RGS-His HRP detection.
The target in test [8] is T1, Cry1Ab insecticidal protein. Briefly: direct ELISA: Cry1Ab coated at 1 ug/ml, RGS-His HRP detection.
The target in test [9] is eCry3.1Ab hybrid insecticidal protein. Description: direct ELISA: eCry3.1Ab coated at 1 ug/ml, RGS-His HRP detection.

B1: synNAPS-12tag ligand (designed binder)
chain: MRGSHHHHHHGSVKVKFKLTGEEKEVDTSKIQWVARFGKFVDFLYDDNGKTGWGWVYEKDAPKELLDMLARAEREKKLGSGLNDIFEAQKIEWH
modifications: in vivo biotinylation (E. coli BirA strain) on the C-terminal avidin-tag
notes: also called tagged synNAPS 12
With B1, the binding result in test [1], in test [2], in test [3], in [4], in test [5] and in test [6] was “no binding (tested: 10 nM)” each time.

B2: synNAPS-14tag ligand (designed binder)
chain: B1 chain with L19Y, T20K, Q32I, W33F, A35Y, D42M, L44I, W53H, W55D, Y57R
modifications: in vivo biotinylation (E. coli BirA strain) on the C-terminal avidin-tag
notes: also called tagged synNAPS 14
As for B2, the binding result in [1], in test [2], in test [3], in test [4], in [5] and in test [6] was “no binding (tested: 10 nM)” throughout.

B3: synNAPS9 variant F31A (designed binder)
chain: RGSHHHHHHGSMVKVKFAQGGEEKEVDTSKIYRVPRHGKIVAFMYDDNGKGGFGHVTEKDAPKELLDMLARAEREKK
With B3, the “Binding (OD 450 nm)” value in test [7] worked out at 1.4 OD 450 nm.

B4: synNAPS9 variant G40A (designed binder)
chain: B3 chain with A42F, G51A
Turning to B4, the “Binding (OD 450 nm)” value in test [7] is 1.7 OD 450 nm.

B5: synNAPS9 variant P24A (designed binder)
chain: B3 chain with P35A, A42F
Take B5: in test [7], the “Binding (OD 450 nm)” value is 0.5 OD 450 nm.

B6: synNAPS9 variant Y21A (designed binder)
chain: B3 chain with Y32A, A42F
For the molecule B6, the “Binding (OD 450 nm)” value in test [7] is 1.8 OD 450 nm.

B7: synNAPS9 variant F42A (designed binder)
chain: B3 chain with A42F, F53A
As to B7, the “Binding (OD 450 nm)” value in test [7] is 0.2 OD 450 nm.

B8: synNAPS9 variant H26A (designed binder)
chain: B3 chain with H37A, A42F
B8: the “Binding (OD 450 nm)” value in test [7] was determined as 1.8 OD 450 nm.

B9: synNAPS9 variant R22A (designed binder)
chain: B3 chain with R33A, A42F
On to B9, for which the “Binding (OD 450 nm)” value in test [7] came to 1 OD 450 nm.

B10: synNAPS9 variant G9A (designed binder)
chain: B3 chain with G20A, A42F
With B10, in test [7], the “Binding (OD 450 nm)” value came to 1.5 OD 450 nm.

B11: synNAPS-10tag ligand (designed binder)
chain: MRGSHHHHHHGSVKVKFLMKGEEKEVDTSKIKWVNRHGKYVAFYYDDNGKTGGGEVREKDAPKELLDMLARAEREKKLGSGLNDIFEAQKIEWH
modifications: in vivo biotinylation (E. coli BirA strain) on the C-terminal avidin-tag
notes: also called tagged synNAPS 10
As to B11, the binding result in test [1], in test [2], in test [3], in [4], in test [5] and in test [6] was “no binding (tested: 10 nM)” throughout.

B12: synNAPS-1tag ligand (designed binder)
chain: MRGSHHHHHHGSVKVKFGPWGEEKEVDTSKIVDVWRWGKYVDFFYDDNGKVGIGSVTEKDAPKELLDMLARAEREKKLGSGLNDIFEAQKIEWH
modifications: in vivo biotinylation (E. coli BirA strain) on the C-terminal avidin-tag
notes: also called tagged synNAPS 1
With B12, the binding result in test [1], in [2], in [3], in [4], in test [5] and in test [6] was “no binding (tested: 10 nM)” each time.

B13: synNAPS2 variant K7A (designed binder)
chain: RGSHHHHHHGSMVKVKFAYKGEEKEVDTSKIVWIGRFGKSVYFRYDDNGKTGAGRVYEKDAPKELLDMLARAEREKK
In the case of B13, the “Binding (OD 450 nm)” value in test [8] was 4 OD 450 nm.

B14: synNAPS2 variant I23A (designed binder)
chain: B13 chain with A18K, I34A
Regarding B14, the “Binding (OD 450 nm)” value in test [8] was determined as 3.2 OD 450 nm.

B15: synNAPS2 variant T40A (designed binder)
chain: B13 chain with A18K, T51A
Consider B15, for which the “Binding (OD 450 nm)” value in test [8] was found to be 4 OD 450 nm.

B16: synNAPS2 variant Y46A (designed binder)
chain: B13 chain with A18K, Y57A
For the molecule B16, the “Binding (OD 450 nm)” value in [8] was found to be 3.5 OD 450 nm.

B17: synNAPS2 variant G24A (designed binder)
chain: B13 chain with A18K, G35A
On to B17, for which, in [8], the “Binding (OD 450 nm)” value turned out to be 4 OD 450 nm.

B18: synNAPS2 variant Y8A (designed binder)
chain: B13 chain with A18K, Y19A
For the molecule B18, the “Binding (OD 450 nm)” value in test [8] stood at 2.4 OD 450 nm.

B19: synNAPS2 variant V21A (designed binder)
chain: B13 chain with A18K, V32A
Consider B19, for which the “Binding (OD 450 nm)” value in [8] is 3.8 OD 450 nm.

B20: synNAPS2 variant K9A (designed binder)
chain: B13 chain with A18K, K20A
On to B20, for which, in [8], the “Binding (OD 450 nm)” value is 4 OD 450 nm.

B21: synNAPS2 variant R33A (designed binder)
chain: B13 chain with A18K, R44A
Regarding B21, the “Binding (OD 450 nm)” value in test [8] stood at 2.2 OD 450 nm.

B22: synNAPS2 variant F26A (designed binder)
chain: B13 chain with A18K, F37A
Turning to B22, the “Binding (OD 450 nm)” value in test [8] came out at 3.7 OD 450 nm.

B23: synNAPS-2 ligand (designed binder)
chain: MVKVKFKYKGEEKEVDTSKIVWIGRFGKSVYFRYDDNGKTGAGRVYEKDAPKELLDMLARAEREKK
Consider B23, for which the “Binding (OD 450 nm)” value in test [8] amounted to 4 OD 450 nm.

B24: synNAPS13 variant K7A (designed binder)
chain: RGSHHHHHHGSMVKVKFARWGEEKEVDTSKILHVLRVGKYVRFSYDDNGKLGAGYVTEKDAPKELLDMLARAEREKK
Consider B24, for which the “Binding (OD 450 nm)” value in [9] was 3 OD 450 nm.

B25: synNAPS13 variant T46A (designed binder)
chain: B24 chain with A18K, T57A
As for B25, the “Binding (OD 450 nm)” value in test [9] came out at 4.1 OD 450 nm.

B26: synNAPS13 variant S33A (designed binder)
chain: B24 chain with A18K, S44A
For the molecule B26, the “Binding (OD 450 nm)” value in test [9] worked out at 4.1 OD 450 nm.

B27: synNAPS13 variant R8A (designed binder)
chain: B24 chain with A18K, R19A
On to B27, for which the “Binding (OD 450 nm)” value in test [9] amounted to 2.4 OD 450 nm.

B28: synNAPS13 variant L21A (designed binder)
chain: B24 chain with A18K, L32A
On to B28, for which the “Binding (OD 450 nm)” value in test [9] stood at 1.8 OD 450 nm.

B29: synNAPS13 variant W9A (designed binder)
chain: B24 chain with A18K, W20A
Take B29: the “Binding (OD 450 nm)” value in test [9] was determined as 1 OD 450 nm.

B30: synNAPS13 variant L24A (designed binder)
chain: B24 chain with A18K, L35A
Consider B30, for which, in [9], the “Binding (OD 450 nm)” value is 1.1 OD 450 nm.

B31: synNAPS13 variant L40A (designed binder)
chain: B24 chain with A18K, L51A
Consider B31, for which the “Binding (OD 450 nm)” value in test [9] is 0.5 OD 450 nm.

B32: synNAPS13 variant V26A (designed binder)
chain: B24 chain with A18K, V37A
For the molecule B32, the “Binding (OD 450 nm)” value in test [9] worked out at 1.8 OD 450 nm.

B33: synNAPS13 variant Y29A (designed binder)
chain: B24 chain with A18K, Y40A
As for B33, the “Binding (OD 450 nm)” value in test [9] is 2.6 OD 450 nm.

B34: synNAPS-9 ligand (designed binder)
chain: MVKVKFAQGGEEKEVDTSKIYRVPRHGKIVFFMYDDNGKGGFGHVTEKDAPKELLDMLARAEREKK
For B34, the “Binding (OD 450 nm)” value in test [7] was 2.5 OD 450 nm.
